Reference: the supplement of paper PMC10065799, “High-throughput profiling of sequence recognition by tyrosine kinases and SH2 domains using bacterial peptide display” (eLife, 2023)
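Also: 11-residue human phosphosite peptides and single-mutation variants displayed on the E. coli surface, counted by deep sequencing, each peptide's frequency after selection divided by its frequency in the unselected input library; frequency after pTyr selection over input frequency; kinase dosed for 20-30% of maximal phosphorylation in three min.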

Each sequence was assayed against Hck (UniProt P08631) (assay: phosphorylation enrichment, bacterial display (enrichment ratio); higher = better substrate or ligand; peptides without Tyr show the background).
Hck, sequence (P08631 whole entry, looked up): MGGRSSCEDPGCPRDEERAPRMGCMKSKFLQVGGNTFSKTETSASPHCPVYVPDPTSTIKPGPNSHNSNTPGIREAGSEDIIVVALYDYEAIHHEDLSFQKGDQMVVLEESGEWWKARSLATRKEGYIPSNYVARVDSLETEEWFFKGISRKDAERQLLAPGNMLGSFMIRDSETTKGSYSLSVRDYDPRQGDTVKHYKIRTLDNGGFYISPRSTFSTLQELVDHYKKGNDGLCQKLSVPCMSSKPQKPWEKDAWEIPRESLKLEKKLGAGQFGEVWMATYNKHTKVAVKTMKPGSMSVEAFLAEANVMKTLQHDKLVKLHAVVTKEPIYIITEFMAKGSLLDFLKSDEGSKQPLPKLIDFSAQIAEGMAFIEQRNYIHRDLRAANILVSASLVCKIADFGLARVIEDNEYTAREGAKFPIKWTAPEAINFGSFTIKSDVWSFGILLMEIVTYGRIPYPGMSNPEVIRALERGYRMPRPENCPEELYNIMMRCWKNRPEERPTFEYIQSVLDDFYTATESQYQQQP
ANAYIYVVQLP [L1CAM_Y420] was tested, and the phosphorylation enrichment was 0.714.
Work on NGSFLYVIISQ [LRP1B_Y1988_R1987L] yielded a phosphorylation enrichment of 0.539.
Sequence FRIGPYQPSVP [MATR3_Y784_N787S_YF] has a phosphorylation enrichment of 0.537.
With AEVDTYCRHNY [HLA-DRB1_Y107_A103E] the phosphorylation enrichment was 0.505.
EQKKYYNATKK [SCN5A_Y1495_M1498T] gave a phosphorylation enrichment of 0.384.
Work on RGMVMYTSKDR [ZG16B_Y136] yielded a phosphorylation enrichment of 0.614.
SRLDSYVRSLP [TRAPPC1_Y133] gave a phosphorylation enrichment of 0.443.
PLRAYYLIARV [HLCS_Y635_D634Y] was tested, and the phosphorylation enrichment was 0.415.
In the case of LLIVEYAKYGS [RET_Y806], the phosphorylation enrichment is reported as 0.759.
SGPRRYTIATL [TTR_Y125_A129T] was tested, and the phosphorylation enrichment was 0.372.
TNDRLYLRSLE [MTM1_Y71_Y68D] gave a phosphorylation enrichment of 0.443.
GGPTYYIDTNA [ACTL6A_Y69] was tested, and the phosphorylation enrichment was 0.899.
In the case of RAFRHYLLKQK [SCN2A_Y1919_R1918H_YF], the phosphorylation enrichment is reported as 1.28.
For RTCSSYAIEKI [PARP15_Y520], the phosphorylation enrichment was 0.581.
TTPGPYRSIFF [MPG_Y71_YF] gave a phosphorylation enrichment of 0.521.
For PPPPAYDDMAQ [TNK2_Y635_V638M], the phosphorylation enrichment was 0.647.
PVKAAYQKVVA [HBB_Y131_Q128K] gave a phosphorylation enrichment of 0.539.
SVVVPCEPPEV [TP53_Y220_Y220C] showed a phosphorylation enrichment of 0.517.
RSAGKYDVFFI [MECP2_Y120_L124F_YF] gave a phosphorylation enrichment of 0.642.
Sequence KDHPDYKFQRR [SOX10_Y171_P175R_YF] has a phosphorylation enrichment of 0.382.
EATKVYLDDPT [G6PD_Y322_G321V] gave a phosphorylation enrichment of 0.458.
For EATKGHLDDPT [G6PD_Y322_Y322H], the phosphorylation enrichment was 0.496.
With SLESAYPEVSQ [TTF1_Y357_G360V] the phosphorylation enrichment was 0.858.
Sequence RYLTRYIYNRE [HLA-DQB1_Y62_V59L] has a phosphorylation enrichment of 0.621.
Sequence FGYPGYQCKHY [TIMP3_Y177_S179C] has a phosphorylation enrichment of 0.44.
Work on ESMQSYDLDYP [UNC13B_Y243_D238E] yielded a phosphorylation enrichment of 0.615.
Work on DEEFEYMNRRR [ERBB3_Y1199_YF] yielded a phosphorylation enrichment of 0.497.
AHAGEHGAEAL [HBA1_Y25_Y25H] gave a phosphorylation enrichment of 0.479.
MSSHHCDYKKY [ZNF445_Y428_Y428C] showed a phosphorylation enrichment of 0.372.
Sequence KPLMPCMRYSR [SMARCE1_Y73_Y73C] has a phosphorylation enrichment of 0.517.
PSDPSYEDTRE [BMPR1A_Y467_M470T] was tested, and the phosphorylation enrichment was 1.19.
Sequence QQPGPYDRPGA [HNRNPH2_Y210_R206Q] has a phosphorylation enrichment of 0.662.
IKAGAYDFPSL [CAMK2A_Y230_P235L] was tested, and the phosphorylation enrichment was 0.382.

Each sequence was assayed against Jak2 (UniProt O60674) in the same assay as above.
Jak2, sequence (O60674 whole entry, looked up): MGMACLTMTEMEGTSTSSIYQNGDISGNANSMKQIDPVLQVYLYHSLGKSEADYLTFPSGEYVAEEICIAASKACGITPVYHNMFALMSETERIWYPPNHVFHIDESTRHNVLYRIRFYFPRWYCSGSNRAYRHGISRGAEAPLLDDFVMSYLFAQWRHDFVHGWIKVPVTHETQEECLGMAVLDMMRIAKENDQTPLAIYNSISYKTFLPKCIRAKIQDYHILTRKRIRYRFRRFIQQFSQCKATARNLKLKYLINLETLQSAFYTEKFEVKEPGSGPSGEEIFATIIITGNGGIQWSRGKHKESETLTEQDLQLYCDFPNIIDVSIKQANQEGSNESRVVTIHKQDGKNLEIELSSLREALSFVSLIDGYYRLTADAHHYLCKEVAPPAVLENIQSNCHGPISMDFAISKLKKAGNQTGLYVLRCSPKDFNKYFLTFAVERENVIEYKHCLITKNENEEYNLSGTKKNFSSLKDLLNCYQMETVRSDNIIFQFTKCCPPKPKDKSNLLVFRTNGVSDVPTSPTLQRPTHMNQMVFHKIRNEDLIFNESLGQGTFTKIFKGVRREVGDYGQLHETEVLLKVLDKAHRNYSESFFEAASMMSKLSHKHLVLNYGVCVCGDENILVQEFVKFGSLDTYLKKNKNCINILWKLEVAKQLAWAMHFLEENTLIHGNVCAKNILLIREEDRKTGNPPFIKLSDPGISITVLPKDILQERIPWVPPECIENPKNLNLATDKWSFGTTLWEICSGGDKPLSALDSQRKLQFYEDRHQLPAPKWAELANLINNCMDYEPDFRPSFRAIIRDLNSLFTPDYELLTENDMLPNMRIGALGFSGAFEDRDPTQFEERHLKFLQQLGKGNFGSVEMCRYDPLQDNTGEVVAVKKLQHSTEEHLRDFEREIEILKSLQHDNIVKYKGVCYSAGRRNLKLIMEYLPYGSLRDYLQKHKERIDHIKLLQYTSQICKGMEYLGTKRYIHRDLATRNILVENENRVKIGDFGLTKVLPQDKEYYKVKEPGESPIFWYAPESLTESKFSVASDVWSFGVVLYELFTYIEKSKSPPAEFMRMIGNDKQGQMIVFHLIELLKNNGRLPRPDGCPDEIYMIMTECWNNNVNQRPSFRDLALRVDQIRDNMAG
ANAYIYVVQLP [L1CAM_Y420] was tested, and the phosphorylation enrichment was 1.14.
Work on NGSFLYVIISQ [LRP1B_Y1988_R1987L] yielded a phosphorylation enrichment of 1.2.
Work on FRIGPYQPSVP [MATR3_Y784_N787S_YF] yielded a phosphorylation enrichment of 0.662.
Work on AEVDTYCRHNY [HLA-DRB1_Y107_A103E] yielded a phosphorylation enrichment of 0.682.
EQKKYYNATKK [SCN5A_Y1495_M1498T] gave a phosphorylation enrichment of 0.503.
For RGMVMYTSKDR [ZG16B_Y136], the phosphorylation enrichment was 0.744.
With SRLDSYVRSLP [TRAPPC1_Y133] the phosphorylation enrichment was 0.556.
Sequence PLRAYYLIARV [HLCS_Y635_D634Y] has a phosphorylation enrichment of 1.71.
For LLIVEYAKYGS [RET_Y806], the phosphorylation enrichment was 1.82.
Sequence SGPRRYTIATL [TTR_Y125_A129T] has a phosphorylation enrichment of 1.03.
Sequence TNDRLYLRSLE [MTM1_Y71_Y68D] has a phosphorylation enrichment of 0.937.
For GGPTYYIDTNA [ACTL6A_Y69], the phosphorylation enrichment was 0.727.
RAFRHYLLKQK [SCN2A_Y1919_R1918H_YF] was tested, and the phosphorylation enrichment was 0.912.
Sequence RTCSSYAIEKI [PARP15_Y520] has a phosphorylation enrichment of 0.894.
TTPGPYRSIFF [MPG_Y71_YF] showed a phosphorylation enrichment of 0.626.
Sequence PPPPAYDDMAQ [TNK2_Y635_V638M] has a phosphorylation enrichment of 1.14.
PVKAAYQKVVA [HBB_Y131_Q128K] was tested, and the phosphorylation enrichment was 0.95.
SVVVPCEPPEV [TP53_Y220_Y220C] was tested, and the phosphorylation enrichment was 1.04.
RSAGKYDVFFI [MECP2_Y120_L124F_YF] was tested, and the phosphorylation enrichment was 1.38.
Sequence KDHPDYKFQRR [SOX10_Y171_P175R_YF] has a phosphorylation enrichment of 0.615.
With EATKVYLDDPT [G6PD_Y322_G321V] the phosphorylation enrichment was 0.803.
Work on EATKGHLDDPT [G6PD_Y322_Y322H] yielded a phosphorylation enrichment of 0.856.
SLESAYPEVSQ [TTF1_Y357_G360V] showed a phosphorylation enrichment of 1.09.
In the case of RYLTRYIYNRE [HLA-DQB1_Y62_V59L], the phosphorylation enrichment is reported as 1.92.
For FGYPGYQCKHY [TIMP3_Y177_S179C], the phosphorylation enrichment was 0.588.
With ESMQSYDLDYP [UNC13B_Y243_D238E] the phosphorylation enrichment was 0.991.
DEEFEYMNRRR [ERBB3_Y1199_YF] was tested, and the phosphorylation enrichment was 1.01.
AHAGEHGAEAL [HBA1_Y25_Y25H] gave a phosphorylation enrichment of 0.491.
MSSHHCDYKKY [ZNF445_Y428_Y428C] was tested, and the phosphorylation enrichment was 0.475.
Sequence KPLMPCMRYSR [SMARCE1_Y73_Y73C] has a phosphorylation enrichment of 0.756.
Work on PSDPSYEDTRE [BMPR1A_Y467_M470T] yielded a phosphorylation enrichment of 2.37.
With QQPGPYDRPGA [HNRNPH2_Y210_R206Q] the phosphorylation enrichment was 0.643.
IKAGAYDFPSL [CAMK2A_Y230_P235L] was tested, and the phosphorylation enrichment was 0.603.

Each sequence was assayed against MERTK (UniProt Q12866) in the same assay as above.
MERTK, sequence (Q12866 whole entry, looked up): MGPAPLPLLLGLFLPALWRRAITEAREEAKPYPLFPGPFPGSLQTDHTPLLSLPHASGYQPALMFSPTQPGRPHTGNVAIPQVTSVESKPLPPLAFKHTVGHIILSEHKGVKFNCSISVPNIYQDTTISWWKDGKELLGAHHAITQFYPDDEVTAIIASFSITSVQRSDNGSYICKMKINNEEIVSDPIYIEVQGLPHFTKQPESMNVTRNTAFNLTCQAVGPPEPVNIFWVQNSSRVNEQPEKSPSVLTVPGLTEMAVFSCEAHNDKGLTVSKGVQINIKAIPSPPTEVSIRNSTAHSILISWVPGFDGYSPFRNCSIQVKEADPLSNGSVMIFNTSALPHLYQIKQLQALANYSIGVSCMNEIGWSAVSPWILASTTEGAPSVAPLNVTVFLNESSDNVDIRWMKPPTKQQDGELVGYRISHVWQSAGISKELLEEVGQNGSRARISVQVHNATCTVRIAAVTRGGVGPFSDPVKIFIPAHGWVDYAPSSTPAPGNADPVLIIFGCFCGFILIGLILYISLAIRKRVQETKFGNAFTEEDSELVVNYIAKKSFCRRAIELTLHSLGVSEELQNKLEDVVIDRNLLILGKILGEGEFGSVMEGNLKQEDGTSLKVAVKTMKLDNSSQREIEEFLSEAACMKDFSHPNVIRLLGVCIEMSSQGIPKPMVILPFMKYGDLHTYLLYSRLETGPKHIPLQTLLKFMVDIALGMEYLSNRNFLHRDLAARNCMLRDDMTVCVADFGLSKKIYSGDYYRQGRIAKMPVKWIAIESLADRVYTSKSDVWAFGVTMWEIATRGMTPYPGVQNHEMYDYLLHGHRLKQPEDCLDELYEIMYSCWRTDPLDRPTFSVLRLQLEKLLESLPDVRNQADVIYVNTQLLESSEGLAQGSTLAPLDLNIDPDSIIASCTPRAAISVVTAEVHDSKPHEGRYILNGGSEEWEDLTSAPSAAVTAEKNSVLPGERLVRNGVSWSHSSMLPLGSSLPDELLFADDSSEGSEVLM
ANAYIYVVQLP [L1CAM_Y420] gave a phosphorylation enrichment of 1.53.
With NGSFLYVIISQ [LRP1B_Y1988_R1987L] the phosphorylation enrichment was 0.468.
FRIGPYQPSVP [MATR3_Y784_N787S_YF] was tested, and the phosphorylation enrichment was 0.412.
AEVDTYCRHNY [HLA-DRB1_Y107_A103E] was tested, and the phosphorylation enrichment was 0.391.
EQKKYYNATKK [SCN5A_Y1495_M1498T] was tested, and the phosphorylation enrichment was 0.371.
For RGMVMYTSKDR [ZG16B_Y136], the phosphorylation enrichment was 0.528.
SRLDSYVRSLP [TRAPPC1_Y133] was tested, and the phosphorylation enrichment was 0.447.
PLRAYYLIARV [HLCS_Y635_D634Y] showed a phosphorylation enrichment of 0.636.
For LLIVEYAKYGS [RET_Y806], the phosphorylation enrichment was 0.75.
Sequence SGPRRYTIATL [TTR_Y125_A129T] has a phosphorylation enrichment of 0.425.
TNDRLYLRSLE [MTM1_Y71_Y68D] showed a phosphorylation enrichment of 0.376.
GGPTYYIDTNA [ACTL6A_Y69] gave a phosphorylation enrichment of 1.08.
Sequence RAFRHYLLKQK [SCN2A_Y1919_R1918H_YF] has a phosphorylation enrichment of 0.97.
Work on RTCSSYAIEKI [PARP15_Y520] yielded a phosphorylation enrichment of 0.344.
Work on TTPGPYRSIFF [MPG_Y71_YF] yielded a phosphorylation enrichment of 0.663.
PPPPAYDDMAQ [TNK2_Y635_V638M] was tested, and the phosphorylation enrichment was 0.675.
PVKAAYQKVVA [HBB_Y131_Q128K] showed a phosphorylation enrichment of 0.523.
For SVVVPCEPPEV [TP53_Y220_Y220C], the phosphorylation enrichment was 0.459.
RSAGKYDVFFI [MECP2_Y120_L124F_YF] showed a phosphorylation enrichment of 0.722.
With KDHPDYKFQRR [SOX10_Y171_P175R_YF] the phosphorylation enrichment was 0.389.
EATKVYLDDPT [G6PD_Y322_G321V] was tested, and the phosphorylation enrichment was 0.385.
Sequence EATKGHLDDPT [G6PD_Y322_Y322H] has a phosphorylation enrichment of 0.448.
For SLESAYPEVSQ [TTF1_Y357_G360V], the phosphorylation enrichment was 0.471.
RYLTRYIYNRE [HLA-DQB1_Y62_V59L] was tested, and the phosphorylation enrichment was 3.87.
In the case of FGYPGYQCKHY [TIMP3_Y177_S179C], the phosphorylation enrichment is reported as 0.704.
Work on ESMQSYDLDYP [UNC13B_Y243_D238E] yielded a phosphorylation enrichment of 0.466.
For DEEFEYMNRRR [ERBB3_Y1199_YF], the phosphorylation enrichment was 0.597.
AHAGEHGAEAL [HBA1_Y25_Y25H] showed a phosphorylation enrichment of 0.382.
MSSHHCDYKKY [ZNF445_Y428_Y428C] gave a phosphorylation enrichment of 0.432.
In the case of KPLMPCMRYSR [SMARCE1_Y73_Y73C], the phosphorylation enrichment is reported as 0.538.
PSDPSYEDTRE [BMPR1A_Y467_M470T] showed a phosphorylation enrichment of 0.827.
QQPGPYDRPGA [HNRNPH2_Y210_R206Q] showed a phosphorylation enrichment of 0.599.
For IKAGAYDFPSL [CAMK2A_Y230_P235L], the phosphorylation enrichment was 5.66.

These sequences were tested on c-Abl (mouse) in the same assay as above.
With ANAYIYVVQLP [L1CAM_Y420] the phosphorylation enrichment was 0.734.
NGSFLYVIISQ [LRP1B_Y1988_R1987L] showed a phosphorylation enrichment of 0.931.
With FRIGPYQPSVP [MATR3_Y784_N787S_YF] the phosphorylation enrichment was 0.536.
Work on AEVDTYCRHNY [HLA-DRB1_Y107_A103E] yielded a phosphorylation enrichment of 0.554.
With EQKKYYNATKK [SCN5A_Y1495_M1498T] the phosphorylation enrichment was 0.485.
In the case of RGMVMYTSKDR [ZG16B_Y136], the phosphorylation enrichment is reported as 0.428.
For SRLDSYVRSLP [TRAPPC1_Y133], the phosphorylation enrichment was 0.473.
Work on PLRAYYLIARV [HLCS_Y635_D634Y] yielded a phosphorylation enrichment of 0.865.
For LLIVEYAKYGS [RET_Y806], the phosphorylation enrichment was 1.03.
For SGPRRYTIATL [TTR_Y125_A129T], the phosphorylation enrichment was 0.39.
For TNDRLYLRSLE [MTM1_Y71_Y68D], the phosphorylation enrichment was 0.651.
Sequence GGPTYYIDTNA [ACTL6A_Y69] has a phosphorylation enrichment of 0.555.
RAFRHYLLKQK [SCN2A_Y1919_R1918H_YF] gave a phosphorylation enrichment of 1.48.
Work on RTCSSYAIEKI [PARP15_Y520] yielded a phosphorylation enrichment of 0.667.
Work on TTPGPYRSIFF [MPG_Y71_YF] yielded a phosphorylation enrichment of 0.706.
Work on PPPPAYDDMAQ [TNK2_Y635_V638M] yielded a phosphorylation enrichment of 0.597.
PVKAAYQKVVA [HBB_Y131_Q128K] was tested, and the phosphorylation enrichment was 2.43.
SVVVPCEPPEV [TP53_Y220_Y220C] gave a phosphorylation enrichment of 0.834.
Work on RSAGKYDVFFI [MECP2_Y120_L124F_YF] yielded a phosphorylation enrichment of 0.796.
In the case of KDHPDYKFQRR [SOX10_Y171_P175R_YF], the phosphorylation enrichment is reported as 0.667.
For EATKVYLDDPT [G6PD_Y322_G321V], the phosphorylation enrichment was 0.656.
In the case of EATKGHLDDPT [G6PD_Y322_Y322H], the phosphorylation enrichment is reported as 0.821.
In the case of SLESAYPEVSQ [TTF1_Y357_G360V], the phosphorylation enrichment is reported as 1.55.
RYLTRYIYNRE [HLA-DQB1_Y62_V59L] gave a phosphorylation enrichment of 1.07.
With FGYPGYQCKHY [TIMP3_Y177_S179C] the phosphorylation enrichment was 0.473.
ESMQSYDLDYP [UNC13B_Y243_D238E] was tested, and the phosphorylation enrichment was 0.933.
DEEFEYMNRRR [ERBB3_Y1199_YF] showed a phosphorylation enrichment of 0.688.
Work on AHAGEHGAEAL [HBA1_Y25_Y25H] yielded a phosphorylation enrichment of 0.454.
MSSHHCDYKKY [ZNF445_Y428_Y428C] gave a phosphorylation enrichment of 0.517.
KPLMPCMRYSR [SMARCE1_Y73_Y73C] was tested, and the phosphorylation enrichment was 0.781.
Work on PSDPSYEDTRE [BMPR1A_Y467_M470T] yielded a phosphorylation enrichment of 1.71.
With QQPGPYDRPGA [HNRNPH2_Y210_R206Q] the phosphorylation enrichment was 0.567.
For IKAGAYDFPSL [CAMK2A_Y230_P235L], the phosphorylation enrichment was 0.541.
